# Test results as given in the supplement of paper PMC10567573.
# B1: EHMT1 (parent)
# chain: FHKDCASRVNNASYCPHCGEESSK
# Variants of: B1
# Test: protein stability index of a GFP-peptide fusion (GPS, HEK-293T) (PSI 1-6); higher = more stable
# Details: c terminus: a fixed tail appended
# 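Further: lentivirally expressed fusions sorted by FACS into six bins by GFP to DsRed ratio, PSI derived from sequencing read proportions per bin multiplied by bin number.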
row,Variant,protein stability index
1,C18P,3.79
2,C18V,3.75
3,C18M,2.96
4,C18T,3.58
5,C18I,3.04
6,C18F,2.93
7,C18D,4.03
8,C18L,2.76
9,C18E,4.36
10,C18Y,3.16
11,C18H,3.62
12,C18Q,3.59
13,C18A,3.76
14,C18K,3.85
15,C18R,3.73
16,C18W,2.31
17,C18S,3.68
18,C18N,3.67
19,C18G,3.63
20,K24T,3.25
21,K24V,3.47
22,K24S,3.48
23,K24D,3.58
24,K24Q,3.49

row,Variant,protein stability index
1,K24L,3.43
2,K24G,3.5
3,K24E,3.11
4,K24M,3.26
5,K24P,3.22
6,K24F,3.07
7,K24I,3.27
8,K24C,3.7
9,K24R,2.5
10,K24H,3.45
11,K24N,2.99
12,K24A,2.92
13,P16D,3.52
14,P16I,3.36
15,P16K,3.57
16,P16V,3.89
17,P16W,1.66
18,P16N,3.29
19,P16T,3.42
20,P16E,3.94
21,P16G,3.24
22,P16F,2.73
23,P16L,3.35
24,P16Q,3.61

row,Variant,protein stability index
1,P16S,3.23
2,P16R,2.96
3,P16H,3.15
4,P16Y,2.58
5,P16M,3.07
6,S23L,3.15
7,S23P,3.15
8,S23T,3.72
9,S23M,3.49
10,S23C,4.21
11,S23Y,3.6
12,S23D,3.39
13,S23H,3.48
14,S23F,3.63
15,S23A,3.63
16,S23E,3.21
17,S23R,3.21
18,S23Q,3.89
19,S23K,3.16
20,S23I,3.87
21,S23V,3.41
22,S23W,2.69
23,S23N,3.41
24,S23G,3.34

row,Variant,protein stability index
1,E20P,3.27
2,E20V,2.94
3,E20S,3.16
4,E20A,3.21
5,E20T,3.19
6,E20M,3.15
7,E20L,2.78
8,E20D,3.92
9,E20N,3.37
10,E20W,3.77
11,E20G,3.6
12,E20Y,3.46
13,E20I,2.95
14,E20Q,3.14
15,E20C,3.55
16,E20K,3.68
17,E20H,2.99
18,E20F,2.93
19,E20R,3.16
20,H17G,3.18
21,H17R,3.5
22,H17Q,3.21
23,H17C,3.45
24,H17P,2.87

row,Variant,protein stability index
1,H17L,3.05
2,H17A,3.68
3,H17V,3.54
4,H17S,3.4
5,H17Y,2.87
6,H17F,2.96
7,H17N,3.85
8,H17T,3.58
9,H17K,3.43
10,H17W,2.16
11,H17D,3.84
12,H17M,3.14
13,H17E,3.47
14,H17I,3.35
15,S22Q,3.55
16,S22G,2.81
17,S22R,3.05
18,S22F,3.2
19,S22I,3.68
20,S22D,3.35
21,S22P,3.03
22,S22N,3.93
23,S22K,3.77
24,S22H,4.09

row,Variant,protein stability index
1,S22A,3.46
2,S22T,3.54
3,S22E,4.01
4,S22W,2.54
5,S22L,3.22
6,S22Y,3.36
7,S22C,3.59
8,S22V,3.38
9,S22M,3.31
10,G19P,3.75
11,G19A,3.93
12,G19I,3.87
13,G19R,2.84
14,G19F,3
15,G19D,3.9
16,G19N,3.5
17,G19W,2.96
18,G19Y,3.91
19,G19Q,3.35
20,G19M,3.55
21,G19H,3.36
22,G19K,3.65
23,G19T,3.51
24,G19V,4.11

row,Variant,protein stability index
1,G19L,3.67
2,G19C,3.59
3,G19S,3.48
4,G19E,4.05
5,E21G,3.29
6,E21N,3.17
7,E21T,3.4
8,E21W,2.8
9,E21H,3
10,E21R,2.92
11,E21Y,2.63
12,E21D,3.22
13,E21L,2.55
14,E21A,3.52
15,E21K,3.22
16,E21C,3.07
17,E21I,2.83
18,E21S,2.71
19,E21F,2.93
20,E21M,2.64
21,E21P,2.41
22,E21V,2.32
23,E21Q,3.12
